Measurements: the supplement of paper PMC9233669
Fewer inactive variants are shown than the library holds.

What was measured:
biotinyl-Ile-oxazolone = test: self-aminoacylation, catalytic enhancement (BIO) (fold over background); higher = more active; k-Seq, kA / k0A0; sequences stand for … in GGGAAUGGAUCCACAUCUACGAAUUC…UUCACUGCAGACUUGACGAAGCUG
Method in brief: (§1)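 Catalytic enhancement equals the median kA over the uncatalyzed rate, the latter read from the low-activity peak of a bimodal Gaussian fit. Values of kA came from fitting each sequence's fraction reacted to a pseudo-first-order model, with 1000 bootstraps. Reacted RNA was captured with streptavidin and quantified by triplicate qPCR and Illumina sequencing after 90 minutes at room temperature with 2–1250 μM biotinyl-aminoacyl-oxazolone and 0.43 μM mutagenized RNA pools bearing a 21-nt variable region.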

biotinyl-Phe-oxazolone = test: self-aminoacylation, catalytic enhancement (BFO) (fold over background); higher = more active; k-Seq, kA / k0A0; sequences stand for … in GGGAAUGGAUCCACAUCUACGAAUUC…UUCACUGCAGACUUGACGAAGCUG
Method in brief: as §1

biotinyl-Val-oxazolone = test: self-aminoacylation, catalytic enhancement (BVO) (fold over background); higher = more active; k-Seq, kA / k0A0; sequences stand for … in GGGAAUGGAUCCACAUCUACGAAUUC…UUCACUGCAGACUUGACGAAGCUG
Method in brief: as §1

biotinyl-Trp-oxazolone = test: self-aminoacylation, catalytic enhancement (BWO) (fold over background); higher = more active; k-Seq, kA / k0A0; sequences stand for … in GGGAAUGGAUCCACAUCUACGAAUUC…UUCACUGCAGACUUGACGAAGCUG
Method in brief: as §1

biotinyl-Leu-oxazolone = test: self-aminoacylation, catalytic enhancement (BLO) (fold over background); higher = more active; k-Seq, kA / k0A0; sequences stand for … in GGGAAUGGAUCCACAUCUACGAAUUC…UUCACUGCAGACUUGACGAAGCUG
Method in brief: as §1

biotinyl-Met-oxazolone = test: self-aminoacylation, catalytic enhancement (BMO) (fold over background); higher = more active; k-Seq, kA / k0A0; sequences stand for … in GGGAAUGGAUCCACAUCUACGAAUUC…UUCACUGCAGACUUGACGAAGCUG
Method in brief: as §1

Row | Sequence | self-aminoacylation (biotinyl-Ile-oxazolone) | self-aminoacylation (biotinyl-Phe-oxazolone) | self-aminoacylation (biotinyl-Val-oxazolone) | self-aminoacylation (biotinyl-Trp-oxazolone) | self-aminoacylation (biotinyl-Leu-oxazolone) | self-aminoacylation (biotinyl-Met-oxazolone)
1 | AAGUAUGCUAAUAGACGCAAG [Fam3.1 aminoacylation ribozyme variant] | 0.823 | 1.04 | 0.637 | 0.756 | 0.725 | 0.824
2 | AAGUAUGCUAAUAGUAGCAAG [Fam3.1 aminoacylation ribozyme variant] | 1.53 | 1.46 | 1.46 | 0.882 | 1.54 | 1.22
3 | AAGUAUGCUAAUAGUCGCAGG [Fam3.1 aminoacylation ribozyme variant] | 1.44 | 2.31 | 1.48 | 1.2 | 1.46 | 1.37
4 | AAGUAUGCUAAUAGUCGGAAG [Fam3.1 aminoacylation ribozyme variant] | 1.64 | 11.1 | 1.29 | 4.24 | 1.42 | 1.72
5 | AAGUAUGCUAAUAGUUGCAAG [Fam3.1 aminoacylation ribozyme variant] | 1.44 | 2.31 | 1.38 | 1.73 | 1.11 | 1.71
6 | AAGUAUGCUAAUAUUCGCAAG [Fam3.1 aminoacylation ribozyme variant] | 1.95 | 1.45 | 1.46 | 2.45 | 2.04 | 1.76
7 | AAGUAUGUUAAUAGUCGCAAG [Fam3.1 aminoacylation ribozyme variant] | 1.44 | 1.49 | 1.24 | 1.38 | 1.44 | 1.4
8 | AAGUCUGCUAAUAGUCUCAAG [Fam3.1 aminoacylation ribozyme variant] | 1.14 | 19.4 | 1.2 | 4.59 | 1.43 | 1.76
9 | AAGUCUGCUAAUAUUCGCAAG [Fam3.1 aminoacylation ribozyme variant] | 1.11 | 2.54 | 1.06 | 1.77 | 1.06 | 1.49
10 | AAGUCUGCUACUAGUCGCAAG [Fam3.1 aminoacylation ribozyme variant] | 0.699 | 0.846 | 0.84 | 0.731 | 1.15 | 0.856
11 | AAGUCUGGUAAUAGUCGCAAG [Fam3.1 aminoacylation ribozyme variant] | 1.17 | 2.18 | 0.918 | 0.868 | 0.903 | 1.16
12 | AAGUGGGCUAAUAGUCGCAAG [Fam3.1 aminoacylation ribozyme variant] | 1.6 | 2.27 | 1.32 | 1.73 | 1.44 | 1.56
13 | AAGUGUGCUAAUAGUCGCAAG [Fam3.1 aminoacylation ribozyme variant] | 1.56 | 21.7 | 1.36 | 6.71 | 1.36 | 1.69
14 | AAGUGUGCUACUAGUCGCAAG [Fam3.1 aminoacylation ribozyme variant] | 1.29 | 1.71 | 1.04 | 1.41 | 0.938 | 1.33
15 | AAGUUACCUAAUAGUCGCAAG [Fam3.1 aminoacylation ribozyme variant] | 1.25 | 2.52 | 1.4 | 1.74 | 1.39 | 1.44
16 | AAGUUAGCAAAUAGUCGCAAG [Fam3.1 aminoacylation ribozyme variant] | 1.42 | 2.37 | 1.23 | 1.36 | 1.32 | 1.44
17 | AAGUUAGCUAAUAGUCGCAAA [Fam3.1 aminoacylation ribozyme variant] | 2.01 | 2.51 | 1.39 | 1.06 | 1.64 | 1.47
18 | AAGUUAGCUCAUAGUCGCAAG [Fam3.1 aminoacylation ribozyme variant] | 1.85 | 3.16 | 1.61 | 1.81 | 2.45 | 1.88
19 | AAGUUCCCUAAUAGUCGCAAG [Fam3.1 aminoacylation ribozyme variant] | 1.12 | 0.485 | 0.992 | 0.613 | 0.965 | 0.931
20 | AAGUUCGCUAAAAGUCGCAAG [Fam3.1 aminoacylation ribozyme variant] | 2.42 | 4.4 | 1.67 | 3.39 | 2.68 | 2.51
21 | AAGUUCGCUAAUAGGCGCAAG [Fam3.1 aminoacylation ribozyme variant] | 1.23 | 1.58 | 1.16 | 1.2 | 1.03 | 0.965
22 | AAGUUCGCUAAUAGUAGCAAG [Fam3.1 aminoacylation ribozyme variant] | 1.67 | 3.5 | 1.26 | 1.24 | 1.28 | 1.55

Row | Sequence | self-aminoacylation (biotinyl-Ile-oxazolone) | self-aminoacylation (biotinyl-Phe-oxazolone) | self-aminoacylation (biotinyl-Val-oxazolone) | self-aminoacylation (biotinyl-Trp-oxazolone) | self-aminoacylation (biotinyl-Leu-oxazolone) | self-aminoacylation (biotinyl-Met-oxazolone)
23 | AAGUUCGCUAAUAGUCGCAAG [Fam3.1 aminoacylation ribozyme variant] | 2.04 | 6.36 | 1.81 | 2.94 | 1.94 | 1.91
24 | AAGUUCGCUAAUAGUCGCAGG [Fam3.1 aminoacylation ribozyme variant] | 2.54 | 2.51 | 1.89 | 2.2 | 3.87 | 2.87
25 | AAGUUCGCUAAUAGUCGGAAG [Fam3.1 aminoacylation ribozyme variant] | 1.2 | 2.48 | 0.743 | 1.07 | 1.17 | 0.621
26 | AAGUUCGCUACUAGUCGCAAG [Fam3.1 aminoacylation ribozyme variant] | 2.08 | 2.28 | 1.79 | 1.34 | 1.5 | 1.67
27 | AAGUUCGCUUAUAGUCGCAAG [Fam3.1 aminoacylation ribozyme variant] | 1.86 | 1.99 | 1.5 | 2.23 | 1.84 | 2.03
28 | AAGUUCGUUAAUAGUCGCAAG [Fam3.1 aminoacylation ribozyme variant] | 1.93 | 3.09 | 1.53 | 1.56 | 1.94 | 1.77
29 | AAGUUGACUAAUAGUCGCAAG [Fam3.1 aminoacylation ribozyme variant] | 1.18 | 1.5 | 0.949 | 1.19 | 0.935 | 0.839
30 | AAGUUGGCUAAGAGUCGCAAG [Fam3.1 aminoacylation ribozyme variant] | 2.02 | 1.91 | 1.53 | 2.13 | 1.98 | 1.68
31 | AAGUUGGCUAAUACUCGCAAG [Fam3.1 aminoacylation ribozyme variant] | 1.39 | 1.44 | 1.39 | 1.45 | 0.979 | 1.2
32 | AAGUUGGCUAAUAGUGGCAAG [Fam3.1 aminoacylation ribozyme variant] | 0.654 | 0.667 | 0.731 | 1.13 | 0.655 | 0.931
33 | AAGUUGGCUAAUCGUCGCAAG [Fam3.1 aminoacylation ribozyme variant] | 1.76 | 2.73 | 1.51 | 2.24 | 1.75 | 1.68
34 | AAGUUGGCUGAUAGUCGCAAG [Fam3.1 aminoacylation ribozyme variant] | 1.8 | 2.34 | 1.7 | 1.86 | 1.55 | 1.49
35 | AAGUUGGCUUAUAGUCGCAAG [Fam3.1 aminoacylation ribozyme variant] | 1.59 | 2.35 | 1.61 | 1.7 | 1.64 | 1.94
36 | AAGUUGGUUAAUAGUCGCAAG [Fam3.1 aminoacylation ribozyme variant] | 1.4 | 1.87 | 1.24 | 1.81 | 1.46 | 1.42
37 | AAGUUUACUAACAGUCGCAAG [Fam3.1 aminoacylation ribozyme variant] | 1.58 | 2.91 | 1.63 | 1.38 | 1.95 | 1.48
38 | AAGUUUACUAAUAGACGCAAG [Fam3.1 aminoacylation ribozyme variant] | 0.695 | 1.15 | 1.03 | 0.834 | 0.638 | 0.816
39 | AAGUUUACUAUUAGUCGCAAG [Fam3.1 aminoacylation ribozyme variant] | 1.83 | 2.72 | 1.76 | 2.02 | 1.49 | 1.59
40 | AAGUUUCCUAAGAGUCGCAAG [Fam3.1 aminoacylation ribozyme variant] | 1.29 | 1.17 | 1.31 | 0.936 | 1.24 | 1.04
41 | AAGUUUCCUAAUAGACGCAAG [Fam3.1 aminoacylation ribozyme variant] | 0.82 | 1.32 | 0.805 | 0.895 | 0.671 | 0.632
42 | AAGUUUCCUAAUAGUCGCAAC [Fam3.1 aminoacylation ribozyme variant] | 1.59 | 2.42 | 1.31 | 2.18 | 1.5 | 1.73
43 | AAGUUUCCUAAUAGUCGCUAG [Fam3.1 aminoacylation ribozyme variant] | 1.61 | 2.18 | 1.67 | 1.97 | 1.39 | 1.78
